From article PMC10516927, “DNA-bridging by an archaeal histone variant via a unique tetramerisation interface” (Communications Biology, 2023)

Columns and labels:
MJ1647 [1] = molecular target: T1, MJ1647 (Methanocaldococcus jannaschii, UniProt Q59041 1-96); test: DNA-bridging pull-down; conditions: EMSA: 50 nM DNA, 10 mM Tris/HCl pH 8.0, 222 mM NaCl, 0.4 mM TCEP, 0.1 mg/ml BSA, 5% glycerol, 37 C 15 min; agarose EMSA: same with 110 mM NaCl, no glycerol …
T1 sequence: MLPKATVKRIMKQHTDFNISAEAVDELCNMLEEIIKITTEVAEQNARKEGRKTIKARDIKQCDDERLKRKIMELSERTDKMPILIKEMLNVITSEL

[2] = molecular target: MJ1647ΔTM, deletion variant of MJ1647 lacking the C-terminal 27 amino acids (Methanocaldococcus jannaschii) (UniProt Q59041); test: SEC-MALS; 100 µl protein at 2.0 mg/ml on a Superose12 10/300 column in buffer N(250), 0.5 ml/min
[3] = molecular target: MJ1647ΔTM, deletion variant of MJ1647 lacking the C-terminal 27 amino acids (Methanocaldococcus jannaschii) (UniProt Q59041); test: native MS; nano-electrospray, protein exchanged into 0.5 M ammonium acetate, Synapt mass spectrometer
[4] = molecular target: T2, histone variant MJ1647 from Methanocaldococcus jannaschii (Methanocaldococcus jannaschii (strain …, UniProt Q59041)); test: co-expression with SEC and BS3 cross-linking/SDS-PAGE
T2 chain: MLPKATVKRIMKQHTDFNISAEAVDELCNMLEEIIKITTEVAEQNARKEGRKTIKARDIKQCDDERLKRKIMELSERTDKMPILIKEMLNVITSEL

[5] = molecular target: the molecule itself; test: SEC-MALS; 100 µl protein at 2.0 mg/ml on a Superose12 10/300 column in buffer N(250), 0.5 ml/min
A3 [6] = molecular target: T3, A3 (Methanocaldococcus jannaschii, UniProt Q58655 1-67); test: EMSA; single shifted species; EMSA: 50 nM DNA, 10 mM Tris/HCl pH 8.0, 222 mM NaCl, 0.4 mM TCEP, 0.1 mg/ml BSA, 5% glycerol, 37 C 15 min; agarose EMSA: same with 110 mM NaCl, no glycerol; TPM and bridging buffers not in the material; conditions: protein: recombinant; tags: untagged; chain copies: 2; label: Cy3 (Methods); blunt
T3 sequence: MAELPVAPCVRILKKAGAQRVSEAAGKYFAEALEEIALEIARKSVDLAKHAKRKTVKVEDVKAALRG

MJ1647ΔTM = molecular target: T4, MJ1647ΔTM (Methanocaldococcus jannaschii, UniProt Q59041 1-69, del70-96); test: EMSA; pattern identical to A3; EMSA: 50 nM DNA, 10 mM Tris/HCl pH 8.0, 222 mM NaCl, 0.4 mM TCEP, 0.1 mg/ml BSA, 5% glycerol, 37 C 15 min; agarose EMSA: same with 110 mM NaCl, no glycerol; TPM and bridging buffers not in the material; conditions: protein: recombinant, tags: untagged, chain copies: 2, label: Cy3 (Methods), blunt
T4 sequence: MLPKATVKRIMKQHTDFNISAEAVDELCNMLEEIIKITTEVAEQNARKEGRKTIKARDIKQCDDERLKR

[7] = molecular target: the molecule itself; test: crystal structure; X-ray, 1.9 Å; crystals from 0.1 M NaOAc pH 4.6, 10% PEG3350, 5% tacsimate pH 4.6; four chains in the asymmetric unit as two dimers
[8] = molecular target: the molecule itself; test: cross-linking; BS3 (5 mM), 20 µM monomers, modified N(200) buffer with 10 mM HEPES/NaOH pH 7.5, 25 °C 40 min, SDS-PAGE with SYPRO-Orange; A3 alone, MJ1647 alone and co-expressed A3 and MJ1647; no DNA
[9] = molecular target: the molecule itself; test: SEC; elution profiles of purified wild-type MJ1647 and its charge-reversal and cysteine variants compared
MJ1647 [10] = molecular target: T1, MJ1647; test: EMSA; single species; EMSA: 50 nM DNA, 10 mM Tris/HCl pH 8.0, 222 mM NaCl, 0.4 mM TCEP, 0.1 mg/ml BSA, 5% glycerol, 37 C 15 min; agarose EMSA: same with 110 mM NaCl, no glycerol; TPM and bridging buffers not in the material; conditions: protein: recombinant; tags: untagged; chain copies: 4; label: Cy3 (Methods); 5'-32P for K80E and E95K; blunt
A3 [11] = molecular target: T3, A3; test: EMSA; two species (one or two dimers); EMSA: 50 nM DNA, 10 mM Tris/HCl pH 8.0, 222 mM NaCl, 0.4 mM TCEP, 0.1 mg/ml BSA, 5% glycerol, 37 C 15 min; agarose EMSA: same with 110 mM NaCl, no glycerol; TPM and bridging buffers not in the material; conditions: protein: recombinant; tags: untagged; chain copies: 2; label: Cy3 (Methods); 5'-32P for K80E and E95K; blunt
MJ1647 E95K = molecular target: T5, MJ1647 E95K (Methanocaldococcus jannaschii, UniProt Q59041 1-96, E95K); test: EMSA; faster (dimer) complex at low, tetramer complex at higher protein; EMSA: 50 nM DNA, 10 mM Tris/HCl pH 8.0, 222 mM NaCl, 0.4 mM TCEP, 0.1 mg/ml BSA, 5% glycerol, 37 C 15 min; agarose EMSA: same with 110 mM NaCl, no glycerol; TPM and bridging buffers not in the material; conditions: protein: recombinant; tags: untagged; chain copies: 2; label: Cy3 (Methods); 5'-32P for K80E and E95K; blunt
T5 sequence: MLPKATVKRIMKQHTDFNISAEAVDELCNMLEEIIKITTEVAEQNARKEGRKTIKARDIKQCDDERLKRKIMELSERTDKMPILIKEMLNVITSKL

MJ1647 K80E = molecular target: T6, MJ1647 K80E (Methanocaldococcus jannaschii, UniProt Q59041 1-96, K80E); test: as above; conditions: protein: recombinant; tags: untagged; chain copies: 2; label: Cy3 (Methods); 5'-32P for K80E and E95K; blunt
T6 sequence: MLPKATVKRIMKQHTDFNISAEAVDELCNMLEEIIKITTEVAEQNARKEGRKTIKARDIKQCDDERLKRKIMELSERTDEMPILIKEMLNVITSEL

685 bp TPM/bridging substrate
K half (MJ1647 [1]): 2500 nM

MJ1647ΔTM, deletion variant of MJ1647 lacking the C-terminal 27 amino acids (from UniProt Q59041 1-96) (domain or fragment)
stoichiometry N [2]: 2
stoichiometry N [3]: 2

B1: histone A3 (MJ1258) from Methanocaldococcus jannaschii (natural protein, UniProt Q58655 1-67, looked up)
chain: MAELPVAPCVRILKKAGAQRVSEAAGKYFAEALEEIALEIARKSVDLAKHAKRKTVKVEDVKAALRG
notes: canonical histone A3 of Methanocaldococcus jannaschii, gene MJ1258, cloned into pET-21a(+) via NdeI and XhoI for expression of untagged protein; expected dimer mass 14.5 kDa; Untagged; also called canonical histone A3; source: E. coli Rosetta 2(DE3), purified (heparin, SP Sepharose, SEC); also co-expressed with MJ1647 from pETDuet-1 in E. coli and purified in the same way
binding result [4]: no binding
stoichiometry N [5]: 2

B2: 30 bp EMSA template (dsDNA)
DNA 1: CATACTGGTTCCAAAGCATGAAATAGTTCCAA
DNA 2: TTGGAACTATTTCATGCTTTGGAACCAGTATG
binding result (A3 [6]): binds
binding result (MJ1647ΔTM): binds

B3: histone variant MJ1647 from Methanocaldococcus jannaschii (natural protein)
chain: MLPKATVKRIMKQHTDFNISAEAVDELCNMLEEIIKITTEVAEQNARKEGRKTIKARDIKQCDDERLKRKIMELSERTDKMPILIKEMLNVITSEL
notes: histone paralogue MJ1647 of Methanocaldococcus jannaschii, histone fold followed by a C-terminal extension of 27 amino acids (tetramerisation module, TM); gene cloned into pET-21a(+) via NdeI and XhoI for expression of untagged protein; expected tetramer mass 44.8 kDa; Untagged; Tetramer in solution (SEC-MALS, native MS); crystallised as dimers at pH 4.6; also called wild-type MJ1647; WT MJ1647; …
stoichiometry N [7]: 2
stoichiometry N [8]: 4

B4: MJ1647 E95K charge-reversal mutant (natural protein, Methanocaldococcus jannaschii)
chain: MLPKATVKRIMKQHTDFNISAEAVDELCNMLEEIIKITTEVAEQNARKEGRKTIKARDIKQCDDERLKRKIMELSERTDKMPILIKEMLNVITSKL
notes: MJ1647 of Methanocaldococcus jannaschii with the substitution E95K; source: E. coli, purified (as the wild type; plasmid by site-directed mutagenesis or NEBuilder HiFi DNA assembly)
binding result [9]: binds

B5: MJ1647 C28S/C62S/K80C (natural protein, Methanocaldococcus jannaschii)
chain: MLPKATVKRIMKQHTDFNISAEAVDELSNMLEEIIKITTEVAEQNARKEGRKTIKARDIKQSDDERLKRKIMELSERTDCMPILIKEMLNVITSEL
notes: MJ1647 of Methanocaldococcus jannaschii with C28S, C62S and K80C; also called single-cysteine substitution K80C; source: E. coli, purified (as the wild type)
stoichiometry N [9]: 4

B6: MJ1647 K80E/E95K double charge-reversal mutant (natural protein, Methanocaldococcus jannaschii)
chain: MLPKATVKRIMKQHTDFNISAEAVDELCNMLEEIIKITTEVAEQNARKEGRKTIKARDIKQCDDERLKRKIMELSERTDEMPILIKEMLNVITSKL
notes: MJ1647 of Methanocaldococcus jannaschii with the substitutions K80E and E95K; source: E. coli, purified (as the wild type; plasmid by site-directed mutagenesis or NEBuilder HiFi DNA assembly)
stoichiometry N [9]: 4

B7: MJ1647 C28S/C62S (cysteine-free background) (natural protein, Methanocaldococcus jannaschii)
chain: MLPKATVKRIMKQHTDFNISAEAVDELSNMLEEIIKITTEVAEQNARKEGRKTIKARDIKQSDDERLKRKIMELSERTDKMPILIKEMLNVITSEL
notes: MJ1647 of Methanocaldococcus jannaschii with its two cysteines replaced by serine (C28S, C62S); also called C28S/C62S variant; source: E. coli, purified (as the wild type)
stoichiometry N [9]: 4

B8: MJ1647 K80E charge-reversal mutant (natural protein, Methanocaldococcus jannaschii)
chain: MLPKATVKRIMKQHTDFNISAEAVDELCNMLEEIIKITTEVAEQNARKEGRKTIKARDIKQCDDERLKRKIMELSERTDEMPILIKEMLNVITSEL
notes: MJ1647 of Methanocaldococcus jannaschii with the substitution K80E; source: E. coli, purified (as the wild type; plasmid by site-directed mutagenesis or NEBuilder HiFi DNA assembly)
binding result [9]: binds

B9: MJ1647 C28S/C62S/E95C (natural protein, Methanocaldococcus jannaschii)
chain: MLPKATVKRIMKQHTDFNISAEAVDELSNMLEEIIKITTEVAEQNARKEGRKTIKARDIKQSDDERLKRKIMELSERTDKMPILIKEMLNVITSCL
notes: MJ1647 of Methanocaldococcus jannaschii with C28S, C62S and E95C; also called single-cysteine substitution E95C; source: E. coli, purified (as the wild type)
stoichiometry N [9]: 4

B10: MJ1647 C28S/C62S/K80C/E95C (double-cysteine variant) (natural protein, Methanocaldococcus jannaschii)
chain: MLPKATVKRIMKQHTDFNISAEAVDELSNMLEEIIKITTEVAEQNARKEGRKTIKARDIKQSDDERLKRKIMELSERTDCMPILIKEMLNVITSCL
modifications: disulfide bond between C80 and C95 of two chains (reduced only at 25 mM TCEP)
notes: MJ1647 of Methanocaldococcus jannaschii with C28S, C62S, K80C and E95C; also called double-cysteine substitution; source: E. coli, purified (as the wild type)
stoichiometry N [9]: 4

B11: 60 bp EMSA template (dsDNA)
DNA 1: CATACTGGTTCCAAAGCATGAAATAGTTCCAAAAGAAGAAGTTGAGGAGTTTTGAAGAGA
DNA 2: TCTCTTCAAAACTCCTCAACTTCTTCTTTTGGAACTATTTCATGCTTTGGAACCAGTATG
binding result (MJ1647 [10]): binds
binding result (MJ1647ΔTM; 5'-32P for K80E and E95K): binds
binding result (A3 [11]): binds
binding result (MJ1647 E95K): binds
binding result (MJ1647 K80E): binds
